Where two headings read alike, the source gives them in different places.

Test [1] concerns the target MLL1 core complex (MWRAD2 holo-complex) (human) (UniProt Q03164). Kind of test: AUC.
The target is the same in test [2]. Kind of test: AUC. This is another data set of the same source.

One may read the stoichiometry N as a count of units in the complex or per binding partner. With “MLL1 core complex (MWRAD2 holo-complex) (from UniProt Q03164;P61964;Q15291;Q9UBL3-3;Q9C005)”, the stoichiometry N in test [1] worked out at 2; in test [2], 18.
